In experiment [1] the target is T1, NRP2b peptide (biotinylated) (human, biotin-conjugated, site not stated).
T1 construct: also called NRP2b isoform specific peptide
T1 peptide: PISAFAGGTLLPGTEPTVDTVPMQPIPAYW
In words: peptide ELISA.

The target in experiment [2] is T2, NRP2A peptide (biotinylated) (human, biotin-conjugated, site not stated).
T2 construct: also called NPR2A; NRP2a specific peptide
In words: BLI, isoform peptide on sensor, 50 nM antibody. (In BLI a coated tip is dipped into the sample, and binding shifts an interference pattern.)

For experiment [3], the target named is T3, human NRP2a v2 expressed on Expi293F cells (human, UniProt O60462 23-931).
T3 construct: cDNA Origene RCC220706; also called NRP2 v2
In words: flow cytometry, Expi293F cells transfected with the target, fluorescent anti-mouse secondary; MFI signal relative to mock-transfected cells. (Flow cytometry measures light scatter and fluorescence of single cells or particles in a stream.)
Experimental: (§1) Signal to noise was calculated as the staining intensity of transfected cells compared to an un-transfected ‘mock’ population.

Experiment [4] has as its target T4, human NRP2b expressed on Expi293F cells (human).
T4 construct: also called full length NRP2b
T4 chain: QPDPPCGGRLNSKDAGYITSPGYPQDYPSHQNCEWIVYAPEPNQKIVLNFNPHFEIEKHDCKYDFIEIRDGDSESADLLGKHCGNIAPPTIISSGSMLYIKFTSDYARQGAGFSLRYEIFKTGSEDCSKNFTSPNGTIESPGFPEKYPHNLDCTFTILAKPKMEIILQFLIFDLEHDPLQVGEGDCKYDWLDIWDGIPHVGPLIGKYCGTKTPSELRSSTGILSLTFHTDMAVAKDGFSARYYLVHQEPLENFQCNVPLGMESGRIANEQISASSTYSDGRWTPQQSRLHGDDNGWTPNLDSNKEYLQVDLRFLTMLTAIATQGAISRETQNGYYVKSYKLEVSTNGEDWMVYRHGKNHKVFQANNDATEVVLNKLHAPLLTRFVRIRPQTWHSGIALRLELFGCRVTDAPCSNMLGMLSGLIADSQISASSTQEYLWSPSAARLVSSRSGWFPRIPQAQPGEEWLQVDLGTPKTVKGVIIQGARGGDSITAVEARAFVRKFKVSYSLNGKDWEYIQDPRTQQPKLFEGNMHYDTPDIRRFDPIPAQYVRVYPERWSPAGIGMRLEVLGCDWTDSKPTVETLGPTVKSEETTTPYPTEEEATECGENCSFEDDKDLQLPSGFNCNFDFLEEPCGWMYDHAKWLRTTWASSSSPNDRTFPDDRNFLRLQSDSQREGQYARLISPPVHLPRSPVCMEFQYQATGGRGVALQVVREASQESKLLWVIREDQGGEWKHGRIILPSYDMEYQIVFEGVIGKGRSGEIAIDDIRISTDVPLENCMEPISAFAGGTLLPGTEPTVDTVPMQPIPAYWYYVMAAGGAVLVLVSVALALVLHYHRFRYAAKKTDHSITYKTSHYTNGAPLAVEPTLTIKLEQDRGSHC
Described as above.
Experimental: as §1

The target in another experiment is T5, NRP2v3.
T5 construct: not the NanoLuc-tagged construct m33; also called human NRP2 v3 expressed on Expi293F cells; NRP2a v3
T5 chain: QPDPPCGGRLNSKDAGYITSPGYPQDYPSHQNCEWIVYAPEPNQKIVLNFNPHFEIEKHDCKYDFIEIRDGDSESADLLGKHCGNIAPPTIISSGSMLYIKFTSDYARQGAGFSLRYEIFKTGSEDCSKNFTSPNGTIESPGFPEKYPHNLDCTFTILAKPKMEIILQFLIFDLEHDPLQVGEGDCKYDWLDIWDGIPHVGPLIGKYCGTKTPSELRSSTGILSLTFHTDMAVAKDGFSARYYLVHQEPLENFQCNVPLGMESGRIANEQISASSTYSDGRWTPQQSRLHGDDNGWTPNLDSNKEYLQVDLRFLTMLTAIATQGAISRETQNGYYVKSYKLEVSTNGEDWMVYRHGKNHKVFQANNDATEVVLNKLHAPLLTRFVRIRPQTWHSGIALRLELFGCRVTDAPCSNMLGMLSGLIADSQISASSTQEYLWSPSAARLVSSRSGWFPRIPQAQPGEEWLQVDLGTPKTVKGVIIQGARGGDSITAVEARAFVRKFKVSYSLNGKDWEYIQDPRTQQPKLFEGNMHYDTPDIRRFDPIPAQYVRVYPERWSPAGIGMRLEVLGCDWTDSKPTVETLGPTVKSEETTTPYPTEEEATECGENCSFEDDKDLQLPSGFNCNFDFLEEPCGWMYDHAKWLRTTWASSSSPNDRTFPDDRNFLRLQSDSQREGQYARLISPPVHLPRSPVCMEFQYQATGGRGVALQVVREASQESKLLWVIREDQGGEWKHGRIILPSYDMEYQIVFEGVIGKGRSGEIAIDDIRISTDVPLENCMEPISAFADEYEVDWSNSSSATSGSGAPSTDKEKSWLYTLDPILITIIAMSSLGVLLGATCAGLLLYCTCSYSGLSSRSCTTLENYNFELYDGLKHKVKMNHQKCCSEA
The description is as above.

For experiment [5], the target named is T6, mNRP2A peptide (biotinylated) (mouse, biotin-conjugated, site not stated).
T6 construct: also called mouse NRP2 isoform a peptide
As to the kind of experiment: BLI, peptide on sensor, 50 nM antibody.

For experiment [6], the target named is mNRP2b peptide (biotinylated) (mouse, biotin-conjugated, site not stated). In words: BLI, peptide on sensor.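 Note: octet RED96e biolayer interferometry with biotin-conjugated NRP2 peptides spanning isoform-specific regions (human and mouse) loaded on biosensors, antibodies applied at 50 nM, association read over 300 s.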
Sequence of mNRP2b peptide (biotinylated) (mouse, biotin-conjugated, site not stated) (peptide, as listed by the source): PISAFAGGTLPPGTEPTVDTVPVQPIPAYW
For experiment [7], the target named is T7, NRP2a_scan 7 peptide (biotinylated) (human, also: biotin-conjugated, site not given here).
T7 peptide: EYEVDWSNSSSA
As to the kind of experiment: BLI, peptide on sensor.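 Note: octet RED96e biolayer interferometry with biotin-conjugated NRP2 peptides spanning isoform-specific regions (human and mouse) loaded on biosensors, antibodies applied at 50 nM, association read over 300 s.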

In experiment [8] the target is T8, Mid-mNRP2A peptide (biotinylated) (mouse, biotin-conjugated, site not stated).
T8 peptide: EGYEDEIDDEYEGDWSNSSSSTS
In words: BLI, peptide on sensor.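 Note: octet RED96e biolayer interferometry with biotin-conjugated NRP2 peptides spanning isoform-specific regions (human and mouse) loaded on biosensors, antibodies applied at 50 nM, association read over 300 s.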

Experiment [9] addresses T9, NRP2a_scan 3 peptide (biotinylated) (human, also: biotin-conjugated, site not given here).
T9 peptide: HEREGYEDEIDD
As to the kind of experiment: BLI, peptide on sensor.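 Note: octet RED96e biolayer interferometry with biotin-conjugated NRP2 peptides spanning isoform-specific regions (human and mouse) loaded on biosensors, antibodies applied at 50 nM, association read over 300 s.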

The target of experiment [10] is T10, NRP2a_scan 2 peptide (biotinylated) (human, also: biotin-conjugated, site not given here).
T10 peptide: PEIHEREGYEDE
As to the kind of experiment: BLI, peptide on sensor.

For experiment [11], the target named is T11, NRP2a_scan 4 peptide (biotinylated) (human, also: biotin-conjugated, site not given here).
T11 peptide: EGYEDEIDDEYE
As to the kind of experiment: BLI, peptide on sensor.

Experiment [12] deals with T12, NRP2a_scan 1 peptide (biotinylated) (human, also: biotin-conjugated, site not given here).
T12 peptide: VDIPEIHEREGY
In words: BLI, peptide on sensor.

The target in experiment [13] is T13, Mid-NRP2A peptide (biotinylated) (human, biotin-conjugated, site not stated).
T13 peptide: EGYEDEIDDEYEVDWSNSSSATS
As to the kind of experiment: BLI, peptide on sensor.

For experiment [14], the target named is T14, NRP2a_scan 6 peptide (biotinylated) (human, also: biotin-conjugated, site not given here).
T14 peptide: IDDEYEVDWSNS
As to the kind of experiment: BLI, peptide on sensor.

Experiment [15] concerns the target Short NRP2A peptide (biotinylated) (human, biotin-conjugated, site not stated). In words: BLI, peptide on sensor.
For experiment [16], the target named is T15, NRP2a_scan 5 peptide (biotinylated) (human, also: biotin-conjugated, site not given here).
T15 peptide: EDEIDDEYEVDW
As to the kind of experiment: BLI, peptide on sensor.

Ends that are not written are not given here.

Experimental for NRP2v3: as §1

B1: aNRP2-408v2 (antibody, V domains shown)
VH: EVKLVESGGGLVKPGGSLKLSCAASGFTFSSYAMSWVRQTPEKRLEWVASISRGSITYYPDSVKGRFTISRDNAGNILYLQMSSLRSEDTAMYYCAREYYYAMDYWGQGTSVTVSS
VL: DIQMTQSPSSLSASLGERVSLTCRASQDIGSRLNWLQQEPDGTIKRLIYATSSLDSGVPKRFSGSRSGSDYSLTISSLESEDFVDYYCLQYASSPYTFGGGTKLEIK
notes: Mouse monoclonal
As for B1, the binding result is reported as “no binding (tested: <3x blank)” in experiment [1]; “binds” in experiment [2]; “binds” in experiment [3]; “no binding” in experiment [4]; “no binding” with NRP2v3; “binds” in experiment [5]. Further, the binding result in [6], in experiment [7], in experiment [8], in experiment [9], in experiment [10] and in [11] was “no binding (tested: 50 nM)” in each case. The binding result in experiment [12], in experiment [13], in experiment [14], in experiment [15] and in experiment [16] was “no binding (tested: 50 nM)” throughout.

B2: aNRP2-409v3 (antibody, V domains shown)
VH: EVQFVETGGGLVQPKGSLKLSCAASGFTFNTNAMNWVRQAPGKGLEWVARIRTKSNNYATYYADSVKDRFTISRDDSQNILYLQMNNLKTEDTAMYYCVTLDSSGYVWFAYWGQGTLVTVSA
VL: DIQMTQSPSSLSASLGERVSLTCRASQDIGSRLNWLQQEPDGTIKRLIYATSSLDSGVPKRFSGSRSGSDYSLTISSLESEDFVDYYCLQYASSPYTFGGGTKLEIK
notes: Mouse monoclonal; also called 409 v2; aNRP2-409v2
Consider B2, for which the binding result in [1] is “no binding (tested: <3x blank)”; in experiment [4] it was “no binding”; with NRP2v3, “no binding”; in [6], “no binding (tested: 50 nM)”; in experiment [7] it was “no binding (tested: 50 nM)”; in experiment [8], “no binding (tested: 50 nM)”. Further, the binding result in [9], in [10], in [11], in experiment [12], in [13] and in experiment [14] was “no binding (tested: 50 nM)” throughout. Also, the binding result in experiment [15] and in experiment [16] was “no binding (tested: 50 nM)” each time.

B3: aNRP2-405v2 (antibody, V domains shown)
VH: EVMLVESGGGLVKPGGSLKLSCAASGFTFRRYAMSWVRQTPEKGLEWVATITSGGSYTYYLDSVKGRITISRDNAKNTLYLQMSSLRSEDTAMYYCARHGIYGGFDYWGQGTTLTVSS
VL: DVLMTQTPLSLPVSLGDQASISCRSSQSIVHSDGNTYLEWYLQKPGQSPNLLIYKVSNRFSGVPDRFSGSGSGTDFTLKISRVEAEDLGIYYCFQGSHVPFTFGSGTKLEIK
notes: Mouse monoclonal
With B3, the binding result in [1] is “no binding (tested: <3x blank)”; in experiment [2], “binds”; in experiment [4], “no binding”; with NRP2v3 it was “no binding”; in [5] it was “binds”; in experiment [6] it was “no binding (tested: 50 nM)”. The binding result in [7], in experiment [8], in experiment [9], in experiment [10], in experiment [11] and in [12] was “no binding (tested: 50 nM)” throughout. Besides, the binding result in experiment [13], in experiment [14], in experiment [15] and in experiment [16] was “no binding (tested: 50 nM)” each time.

Source of the values: US20240417476A1 (ATYR PHARMA, published 2024).
